Data as given in patent publication US20140011213A1.

Target: BAP-CD59a reporter, biotinylated in vitro by BirA (on CHO-S cells) (mouse)
Experiment: FACS; CHO-S transfected with BAP-CD59a, incubated with BirA and stained with F-SA (non-transfected stained control MFI-69)

BAP-CD59a reporter, biotinylated in vitro by BirA (on CHO-S cells) (mouse), sequence (chain, as listed by the source): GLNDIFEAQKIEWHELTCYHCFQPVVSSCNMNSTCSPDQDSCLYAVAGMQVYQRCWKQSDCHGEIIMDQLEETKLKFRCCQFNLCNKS

MFI: 24400
Substance: R-Phycoerythrin-conjugated Streptavidin (from UniProt P22629 37-163)
